Target: Chaetomium thermophilum Cdc48 (Chaetomium thermophilum)
Assay: cryo-EM structure

## Chaetomium thermophilum Cdc48 (enzyme)
  stoichiometry N: 6

## Ufd1/Npl4 heterodimer (UN) from Chaetomium thermophilum (complex)
  stoichiometry N: 1

Source: PMC6044470
